Measured values published in patent US20150098945A1 (Daiichi Sankyo, published 2015).

Experiments:
[1] = target: N-terminal FLAG-tagged human ROBO1 (pCI-FLAG-hROBO1-transfected HEK293 cells) (human, UniProt Q9Y6N7 58-1651); test: flow cytometry (FC500), HEK293 cells transfected with pCI-FLAG-hROBO1, FITC goat anti-human IgG Fc; control histogram IgG (human IgG)
[2] = target: T1, human ROBO3 (pCI-hROBO3-transfected HEK293 cells) (human, UniProt Q96MS0 21-1386); test: flow cytometry (FC500), HEK293 cells transfected with pCI-hROBO3, FITC goat anti-human IgG Fc; control histogram IgG (human IgG)
T1 sequence: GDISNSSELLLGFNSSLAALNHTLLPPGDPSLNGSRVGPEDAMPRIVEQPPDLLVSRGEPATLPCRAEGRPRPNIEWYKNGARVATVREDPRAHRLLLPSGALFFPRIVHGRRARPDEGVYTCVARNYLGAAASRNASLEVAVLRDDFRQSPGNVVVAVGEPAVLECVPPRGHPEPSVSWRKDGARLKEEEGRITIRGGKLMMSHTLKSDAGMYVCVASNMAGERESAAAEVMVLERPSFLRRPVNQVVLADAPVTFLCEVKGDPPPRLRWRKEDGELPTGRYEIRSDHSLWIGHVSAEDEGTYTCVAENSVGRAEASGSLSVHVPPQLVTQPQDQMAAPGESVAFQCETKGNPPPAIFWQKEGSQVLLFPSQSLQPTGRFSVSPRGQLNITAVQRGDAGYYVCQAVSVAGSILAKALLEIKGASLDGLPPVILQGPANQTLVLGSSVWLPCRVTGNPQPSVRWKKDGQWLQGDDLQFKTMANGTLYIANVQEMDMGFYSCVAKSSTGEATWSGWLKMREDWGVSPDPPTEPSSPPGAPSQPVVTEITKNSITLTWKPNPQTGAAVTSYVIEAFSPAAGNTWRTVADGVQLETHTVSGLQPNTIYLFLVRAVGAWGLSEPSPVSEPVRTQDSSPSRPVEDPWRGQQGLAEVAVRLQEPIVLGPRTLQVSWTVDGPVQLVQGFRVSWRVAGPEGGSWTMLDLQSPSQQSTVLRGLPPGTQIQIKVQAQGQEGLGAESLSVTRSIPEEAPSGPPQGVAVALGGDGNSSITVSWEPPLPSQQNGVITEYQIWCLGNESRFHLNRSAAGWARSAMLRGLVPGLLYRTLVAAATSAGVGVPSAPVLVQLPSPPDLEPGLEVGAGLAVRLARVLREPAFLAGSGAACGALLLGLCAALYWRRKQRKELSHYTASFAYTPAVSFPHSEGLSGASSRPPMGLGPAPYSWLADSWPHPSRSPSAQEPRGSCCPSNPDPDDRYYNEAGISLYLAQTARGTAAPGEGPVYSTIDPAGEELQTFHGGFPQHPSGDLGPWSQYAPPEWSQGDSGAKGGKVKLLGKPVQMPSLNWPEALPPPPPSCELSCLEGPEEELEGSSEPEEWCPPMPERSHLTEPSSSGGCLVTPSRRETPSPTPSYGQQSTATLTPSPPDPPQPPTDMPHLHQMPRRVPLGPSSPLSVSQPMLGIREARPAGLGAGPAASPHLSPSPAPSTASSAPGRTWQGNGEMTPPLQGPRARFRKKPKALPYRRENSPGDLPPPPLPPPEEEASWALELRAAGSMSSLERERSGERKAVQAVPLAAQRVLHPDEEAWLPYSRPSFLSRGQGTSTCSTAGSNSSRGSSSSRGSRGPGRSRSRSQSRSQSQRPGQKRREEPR

Sequence of N-terminal FLAG-tagged human ROBO1 (pCI-FLAG-hROBO1-transfected HEK293 cells) (Q9Y6N7 other isoform, or with tags, fused parts or gaps): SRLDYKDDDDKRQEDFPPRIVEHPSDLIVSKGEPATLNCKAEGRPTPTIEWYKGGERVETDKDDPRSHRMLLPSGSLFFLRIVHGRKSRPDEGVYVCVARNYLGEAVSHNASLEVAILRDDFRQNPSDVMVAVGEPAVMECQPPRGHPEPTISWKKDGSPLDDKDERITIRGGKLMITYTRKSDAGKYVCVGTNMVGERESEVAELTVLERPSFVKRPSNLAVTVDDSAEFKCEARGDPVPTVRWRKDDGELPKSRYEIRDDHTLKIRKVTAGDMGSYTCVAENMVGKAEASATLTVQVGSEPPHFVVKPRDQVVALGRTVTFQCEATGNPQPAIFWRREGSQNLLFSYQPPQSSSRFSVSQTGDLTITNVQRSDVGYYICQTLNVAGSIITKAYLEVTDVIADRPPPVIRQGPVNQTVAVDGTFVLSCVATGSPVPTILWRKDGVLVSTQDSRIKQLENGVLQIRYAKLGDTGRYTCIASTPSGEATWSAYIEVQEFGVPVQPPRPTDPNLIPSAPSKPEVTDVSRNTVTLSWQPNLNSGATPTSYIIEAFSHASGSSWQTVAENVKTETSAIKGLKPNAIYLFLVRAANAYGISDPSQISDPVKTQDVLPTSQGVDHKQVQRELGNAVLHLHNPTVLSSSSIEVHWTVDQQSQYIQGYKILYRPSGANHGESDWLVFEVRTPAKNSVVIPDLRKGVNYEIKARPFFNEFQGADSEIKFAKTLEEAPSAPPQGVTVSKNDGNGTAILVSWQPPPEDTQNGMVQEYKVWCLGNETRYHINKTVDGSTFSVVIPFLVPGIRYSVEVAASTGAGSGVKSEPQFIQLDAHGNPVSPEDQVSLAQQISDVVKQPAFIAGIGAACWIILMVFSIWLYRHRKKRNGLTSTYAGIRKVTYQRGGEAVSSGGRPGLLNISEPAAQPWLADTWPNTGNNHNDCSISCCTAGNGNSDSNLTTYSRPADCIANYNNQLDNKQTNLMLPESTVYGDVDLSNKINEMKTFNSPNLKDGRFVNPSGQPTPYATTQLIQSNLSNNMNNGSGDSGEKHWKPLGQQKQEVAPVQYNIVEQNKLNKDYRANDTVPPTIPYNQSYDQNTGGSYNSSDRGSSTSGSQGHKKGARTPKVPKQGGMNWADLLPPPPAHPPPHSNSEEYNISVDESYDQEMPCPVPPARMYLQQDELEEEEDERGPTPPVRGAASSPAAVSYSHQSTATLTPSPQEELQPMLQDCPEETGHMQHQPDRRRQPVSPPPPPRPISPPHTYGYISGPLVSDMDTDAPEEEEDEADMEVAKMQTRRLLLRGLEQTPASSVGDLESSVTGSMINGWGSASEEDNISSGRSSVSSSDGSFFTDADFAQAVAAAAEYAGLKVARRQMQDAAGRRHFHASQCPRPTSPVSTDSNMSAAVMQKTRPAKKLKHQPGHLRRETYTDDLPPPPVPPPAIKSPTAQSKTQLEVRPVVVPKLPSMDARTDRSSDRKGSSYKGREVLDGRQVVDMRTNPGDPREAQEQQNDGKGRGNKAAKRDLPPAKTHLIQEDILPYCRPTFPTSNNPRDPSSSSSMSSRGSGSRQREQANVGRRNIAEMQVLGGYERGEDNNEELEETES

B1: humanized MAb1 antibody H-1143 (antibody, human IgG2, kappa, V domains shown)
VH: EVQLVESGGGLVQPGGSLRLSCAASGFTFSTYAMSWVRQAPGKGLEWVATISQGGTYTYYPDSVKGRFTISRDNAKNTLYLQMNSLRAEDTAVYYCARLIYYDYLDYWGQGTLVTVSS
VL: DIVMTQSPLSLPVTLGEPASISCRSSQSLENENKNLYLNWYLQKPGQSPQLLIYRVSNRFSGVPDRFSGSGSGTDFTLKISRVEAEDVGVYYCLQVTHVPWTFGPGTKVDIKR
notes: Human IgG2 / kappa constant regions; also called hMAb1-H2-type heavy chain + hMAb1-L2-type light chain
- binding result [1]: no binding (tested: 10 µg/mL)
- binding result [2]: no binding (tested: 10 µg/mL)

B2: humanized MAb1 antibody H-2140 (antibody, human IgG2, kappa, V domains shown)
VH: EVQLVESGGGLVQPGGSLRLSCAASGFTFSTYAMSWVRQAPGKRLEWVATISQGGTYTYYPDSVKGRFTISRDNAKNTLYLQMNSLRAEDTAVYYCARLIYYDYLDYWGQGTLVTVSS
VL: DIVMTQSPLSLPVTLGEPASISCRSSQSLENSNGNTYLNWYLQKPGQSPQLLIYRVSNRFSGVPDRFSGSGSGTDFTLKISRVEAEDVGVYYCLQVTHVPWTFGPGTKVDIKR
notes: Human IgG2 / kappa constant regions; also called hMAb1-H4-type heavy chain + hMAb1-L1-type light chain
- binding result [1]: no binding (tested: 10 µg/mL)
- binding result [2]: no binding (tested: 10 µg/mL)

B3: humanized MAb1 antibody H-2143 (antibody, human IgG2, kappa, V domains shown)
VH: EVQLVESGGGLVQPGGSLRLSCAASGFTFSTYAMSWVRQAPGKRLEWVATISQGGTYTYYPDSVKGRFTISRDNAKNTLYLQMNSLRAEDTAVYYCARLIYYDYLDYWGQGTLVTVSS
VL: DIVMTQSPLSLPVTLGEPASISCRSSQSLENENKNLYLNWYLQKPGQSPQLLIYRVSNRFSGVPDRFSGSGSGTDFTLKISRVEAEDVGVYYCLQVTHVPWTFGPGTKVDIKR
notes: Human IgG2 / kappa constant regions; also called hMAb1-H4-type heavy chain + hMAb1-L2-type light chain
- binding result [1]: no binding (tested: 10 µg/mL)
- binding result [2]: no binding (tested: 10 µg/mL)
